Laboratory results published in US20250197467A1 (BRIGHT PEAK THERAPEUTICS, published 2025).
Substitutions are numbered along the chain they refer to.

T1: IL-18 receptor (IL-18Rαβ) on cells (UniProt Q13478 19-541; O95256 20-599, limits assumed)
T1 sequence (looked up) 1: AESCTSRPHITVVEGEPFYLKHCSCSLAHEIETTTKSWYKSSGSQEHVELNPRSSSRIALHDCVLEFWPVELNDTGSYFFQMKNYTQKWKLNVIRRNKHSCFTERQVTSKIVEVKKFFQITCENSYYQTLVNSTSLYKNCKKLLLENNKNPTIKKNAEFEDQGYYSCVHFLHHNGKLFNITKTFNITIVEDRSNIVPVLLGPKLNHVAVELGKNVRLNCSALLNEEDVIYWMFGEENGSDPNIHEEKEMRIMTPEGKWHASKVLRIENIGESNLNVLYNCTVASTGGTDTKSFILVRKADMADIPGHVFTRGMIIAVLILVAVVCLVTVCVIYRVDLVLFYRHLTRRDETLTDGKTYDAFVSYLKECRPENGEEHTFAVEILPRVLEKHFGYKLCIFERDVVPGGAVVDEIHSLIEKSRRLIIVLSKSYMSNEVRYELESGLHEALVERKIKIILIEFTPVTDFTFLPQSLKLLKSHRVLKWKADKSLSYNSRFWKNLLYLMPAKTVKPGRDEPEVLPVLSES
T1 sequence (looked up) 2: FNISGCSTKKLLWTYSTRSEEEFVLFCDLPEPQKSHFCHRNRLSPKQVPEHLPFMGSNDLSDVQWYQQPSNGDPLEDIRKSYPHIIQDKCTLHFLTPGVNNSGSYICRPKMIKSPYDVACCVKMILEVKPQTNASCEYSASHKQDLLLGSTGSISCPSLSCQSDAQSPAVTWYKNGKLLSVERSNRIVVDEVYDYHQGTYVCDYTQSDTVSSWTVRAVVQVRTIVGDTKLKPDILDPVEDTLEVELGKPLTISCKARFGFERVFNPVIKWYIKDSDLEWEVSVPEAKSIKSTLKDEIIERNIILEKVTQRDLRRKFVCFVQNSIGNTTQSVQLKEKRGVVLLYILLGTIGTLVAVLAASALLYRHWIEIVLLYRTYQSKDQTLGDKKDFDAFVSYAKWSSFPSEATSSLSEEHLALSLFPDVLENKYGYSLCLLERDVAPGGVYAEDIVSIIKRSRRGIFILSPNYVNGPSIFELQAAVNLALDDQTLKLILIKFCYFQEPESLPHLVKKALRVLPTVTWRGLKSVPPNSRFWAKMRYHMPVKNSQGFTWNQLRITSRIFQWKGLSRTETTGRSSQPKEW

B1: C127 (ligand)
chain: MAAEPVEDNCINFVAMKFIDNTLYFIAEDDENLESDSGGPGPAGMKGLPGSYFGKLKSKLSIIRNLNDQVLFIDQGNRPLFEDMTDSDARDNAPRTIFIISMYADSQPRGMAVAISVKCEKISTLSAENKIISFKEMNPPDNIKDTKSDIIFFQRSVPGHDNKMQFESSSYEGYFLAAEKERDLFKLILKKEDELGDRSIMFTVQNED
B2: C187 (ligand)
chain: MAAEPVEDNCINFVAMKFIDNTLYFIAEDDENLESDPLGLAGYFGKLKSKLSIIRNLNDQVLFIDQGNRPLFEDMTDSDARDNAPRTIFIISMYADSQPRGMAVAISVKCEKISTLSAENKIISFKEMNPPDNIKDTKSDIIFFQRSVPGHDNKMQFESSSYEGYFLAAEKERDLFKLILKKEDELGDRSIMFTVQNED
B3: C191 (ligand)
chain: YFGKLKSKLSIIRNLNDQVLFIDQGNRPLFEDMTDSDARDNAPRTIFIISMYADSQPRGMAVAISVKCEKISTLSAENKIISFKEMNPPDNIKDTKSDIIFFQRSVPGHDNKMQFESSSYEGYFLAAEKERDLFKLILKKEDELGDRSIMFTVQNESGGPLGLAGGSNIVPVLLGPKLNHVAVELGKNVRLNCSALLNEEDVIYWMFGEENGSDPNIHEEKEMRIMTPEGKWHASKVLRIENIGESNLNVLYNCTVASTGGTDTKSFILVRKADHHHHHH
B4: C190 (ligand)
chain: MAAEPVEDNCINFVAMKFIDNTLYFIAEDDENLESDYFGKLKSKLSIIRNLNDQVLFIDQGNRPLFEDMTDSDARDNAPRTIFIISMYADSQPRGMAVAISVKCEKISTLSAENKIISFKEMNPPDNIKDTKSDIIFFQRSVPGHDNKMQFESSSYEGYFLAAEKERDLFKLILKKEDELGDRSIMFTVQNED
B5: C190 + MMP9 (ligand)
chain: B4 chain
B6: C314 (ligand)
chain: MAAEPVEDNAINFVAMKFIDNTLYFIAEDDENLESDPLGYFGKLKSKLSIIRNLNDQVLFIDQGNRPLFEDMTDSDARDNAPRTIFIISMYADSQPRGMAVAISVKCEKISTLSAENKIISFKEMNPPDNIKDTKSDIIFFQRSVPGHDNKMQFESSSYEGYFLAAEKERDLFKLILKKEDELGDRSIMFTVQNED
B7: C315 (ligand)
chain: B6 chain with A10S
B8: C172 (ligand)
chain: YFGKLKSKLSIIRNLNDQVLFIDQGNRPLFEDMTDSDARDNAPRTIFIISMYADSQPRGMAVAISVKCEKISTLSAENKIISFKEMNPPDNIKDTKSDIIFFQRSVPGHDNKMQFESSSYEGYFLAAEKERDLFKLILKKEDELGDRSIMFTVQNESGGPGPAGMKGLPGSNIVPVLLGPKLNHVAVELGKNVRLNCSALLNEEDVIYWMFGEENGSDPNIHEEKEMRIMTPEGKWHASKVLRIENIGESNLNVLYNCTVASTGGTDTKSFILVRKADHHHHHH
B9: C137 (ligand)
chain: B8 chain with S157G, P160G, G161S, P162G, A163G, M165G, K166S, L168G, P169G
B10: C189 (ligand)
chain: B8 chain with N196D, N215D, N257D
B11: C173 (ligand)
chain: YFGKLKSKLSIIRNLNDQVLFIDQGNRPLFEDMTDSDARDNAPRTIFIISMYADSQPRGMAVAISVKCEKISTLSAENKIISFKEMNPPDNIKDTKSDIIFFQRSVPGHDNKMQFESSSYEGYFLAAEKERDLFKLILKKEDELGDRSIMFTVQNEPLGLAGSNIVPVLLGPKLNHVAVELGKNVRLNCSALLNEEDVIYWMFGEENGSDPNIHEEKEMRIMTPEGKWHASKVLRIENIGESNLNVLYNCTVASTGGTDTKSFILVRKADHHHHHH
B12: C086 (SEQ ID NO: 30) (ligand)
chain: YFGKLKSKLSIIRNLNDQVLFIDQGNRPLFEDMTDSDARDNAPRTIFIISMYADSQPRGMAVAISVKCEKISTLSAENKIISFKEMNPPDNIKDTKSDIIFFQRSVPGHDNKMQFESSSYEGYFLAAEKERDLFKLILKKEDELGDRSIMFTVQNED
B13: C136 (ligand)
chain: YFGKLKSKLSIIRNLNDQVLFIDQGNRPLFEDMTDSDARDNAPRTIFIISMYADSQPRGMAVAISVKCEKISTLSAENKIISFKEMNPPDNIKDTKSDIIFFQRSVPGHDNKMQFESSSYEGYFLAAEKERDLFKLILKKEDELGDRSIMFTVQNEGGSGGSNIVPVLLGPKLNHVAVELGKNVRLNCSALLNEEDVIYWMFGEENGSDPNIHEEKEMRIMTPEGKWHASKVLRIENIGESNLNVLYNCTVASTGGTDTKSFILVRKADHHHHHH
B14: C326 (ligand)
chain: MAAEPVEDNSINFVAMKFIDNTLYFIAEDDENLESDRGRRVANPLGLAGSGYFGKLKSKLSIIRNLNDQVLFIDQGNRPLFEDMTDSDARDNAPRTIFIISMYADSQPRGMAVAISVKCEKISTLSAENKIISFKEMNPPDNIKDTKSDIIFFQRSVPGHDNKMQFESSSYEGYFLAAEKERDLFKLILKKEDELGDRSIMFTVQNED
B15: C325 (ligand)
chain: MAAEPVEDNSINFVAMKFIDNTLYFIAEDDENLESDRGRRPLGLAGGSGYFGKLKSKLSIIRNLNDQVLFIDQGNRPLFEDMTDSDARDNAPRTIFIISMYADSQPRGMAVAISVKCEKISTLSAENKIISFKEMNPPDNIKDTKSDIIFFQRSVPGHDNKMQFESSSYEGYFLAAEKERDLFKLILKKEDELGDRSIMFTVQNED
B16: C326 + MMP9 (ligand)
chain: LAGSGYFGKLKSKLSIIRNLNDQVLFIDQGNRPLFEDMTDSDARDNAPRTIFIISMYADSQPRGMAVAISVKCEKISTLSAENKIISFKEMNPPDNIKDTKSDIIFFQRSVPGHDNKMQFESSSYEGYFLAAEKERDLFKLILKKEDELGDRSIMFTVQNED
B17: C325 + MMP9 (ligand)
chain: LAGGSGYFGKLKSKLSIIRNLNDQVLFIDQGNRPLFEDMTDSDARDNAPRTIFIISMYADSQPRGMAVAISVKCEKISTLSAENKIISFKEMNPPDNIKDTKSDIIFFQRSVPGHDNKMQFESSSYEGYFLAAEKERDLFKLILKKEDELGDRSIMFTVQNED
B18: C324 + MMP9 (ligand)
chain: B12 chain

biological target: T1, IL-18 receptor (IL-18Rαβ) on cells; assay: cell-based or functional assay

Hek Blue reporter assay EC50 | Binder
295 pM | B1
1240 pM | B2
2.02 pM | B3
404 pM | B4
198 pM | B5
4000 pM | B6
3360 pM | B7
1.09 pM | B8
2.08 pM | B9
0.43 pM | B10
0.13 pM | B11
0.057 pM | B12
0.884 pM | B13

biological target: T1, IL-18 receptor (IL-18Rαβ) on cells; assay: cell-based or functional assay; remark: another data set of the same source

HEK-Blue IL-18R reporter EC50 | Binder
0.034 pM | B12

biological target: T1, IL-18 receptor (IL-18Rαβ) on cells; assay: cell-based or functional assay; remark: another data set of the same source

IFNg release PBMCs assay EC50 | Binder
0.0022 nM | B12

biological target: T1, IL-18 receptor (IL-18Rαβ) on cells; assay: cell-based or functional assay; remark: another data set of the same source

Fold potency loss vs C086 | HEK-blue EC50 | Binder
7000 fold | 295 nM | B1
29400 fold | 1240 nM | B2
48 fold | 2.02 nM | B3
– | 404 nM | B4
– | 198 nM | B5
26 fold | 1.09 nM | B8
49 fold | 2.08 nM | B9
10 fold | 0.43 nM | B10
– | 0.04 nM | B12
21 fold | 0.884 nM | B13

biological target: T1, IL-18 receptor (IL-18Rαβ) on cells; assay: cell-based or functional assay; remark: another data set of the same source

IFNγ release NK-92 assay EC50 | Binder
217 nM | B14
201 nM | B15
0.0514 nM | B16
0.0467 nM | B17
255 nM | B6
252 nM | B7
0.0018 nM | B12
0.0022 nM | B18
